In patent US20120316071A1 (published 2012):
Blank lines part the entries; values can stand above or below the binder they belong to.

How the values were obtained:
[1] = target: T1, rHuman P-Cadherin/Fc Chimera, CF (R&D Systems Cat#861-PC) (human, UniProt P22223 108-654); experiment: MSD Multispot ECL, antigen spotted on plate, Fab at 120 nM; blank spot 363
T1 construct: Bought Fc chimera; Fc part of the bought chimera not given

[2] = target: T2, rHuman CD44/Fc Chimera, CF (R&D Systems Cat#3660-CD) (human, UniProt P16070 21-220); experiment: as above
T2 construct: Bought Fc chimera; Fc part of the bought chimera not given

[3] = target: T3, rHuman Notch-1/Fc Chimera, CF (R&D Systems Cat#3647-TK) (human, UniProt P46531 19-526); experiment: as above
T3 construct: Bought Fc chimera; Fc part of the bought chimera not given

[4] = target: T1, rHuman P-Cadherin/Fc Chimera, CF (R&D …); experiment: MSD Multispot ECL, antigen spotted on plate, Fab at 480 nM; blank spot 362
[5] = target: T2, rHuman CD44/Fc Chimera, CF (R&D Systems …); experiment: as above
[6] = target: T4, rHuman Erythropoietin R/Fc Chimera, CF (R&D Systems Cat#963-ER) (human, UniProt P19235 25-250); experiment: as above
T4 construct: Bought Fc chimera; also called EPO R/Fc; Epo R; Fc part of the bought chimera not given
T4 sequence (looked up): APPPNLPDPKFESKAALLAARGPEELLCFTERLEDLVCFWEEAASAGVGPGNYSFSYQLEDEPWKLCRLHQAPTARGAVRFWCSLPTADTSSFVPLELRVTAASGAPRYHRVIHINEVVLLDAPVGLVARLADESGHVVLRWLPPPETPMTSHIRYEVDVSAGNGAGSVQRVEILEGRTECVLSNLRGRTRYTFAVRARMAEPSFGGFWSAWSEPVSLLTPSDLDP

[7] = target: T3, rHuman Notch-1/Fc Chimera, CF (R&D …); experiment: as above
[8] = target: T5, Recombinant Human DLL4 (R&D Systems Cat#1506-D4/CF) (human, UniProt Q9NR61 27-524); experiment: as above
T5 construct: Bought recombinant protein; also called rHuman DLL4; delta-like protein 4

[9] = target: T6, rHuman ErbB2/Fc Chimera, CF (R&D Systems Cat#1129-ER) (human, UniProt P04626 23-652); experiment: MSD multispot ECL, antigen spotted, Fab 0.1 nM; blank spot 201
T6 construct: Bought reagent; also called human epidermal growth factor 2 receptor

[10] = target: T7, rHuman HGF R/c-MET/Fc Chimera, CF (R&D Systems Cat#358-MT/CF) (human, UniProt P08581 25-932); experiment: as above
T7 construct: Bought reagent; also called HGF R/Fc; hepatocyte growth factor receptor

[11] = target: T8, rHuman CD44/Fc Chimera, CF (R&D Systems Cat#3660-CD) (human, UniProt P16070 21-220); experiment: as above
T8 construct: Bought reagent

[12] = target: T9, rHuman Erythropoietin R/Fc Chimera, CF (R&D Systems Cat#963-ER) (human, UniProt P19235 25-250); experiment: as above
T9 construct: Bought reagent; also called EPO R/Fc; Epo R
T9 sequence (looked up): T4 sequence (looked up)

[13] = target: T10, rHuman Notch-1/Fc Chimera, CF (R&D Systems Cat#3647-TK) (human, UniProt P46531 19-526); experiment: as above
T10 construct: Bought reagent

[14] = target: T11, rHuman EGF R/Fc Chimera, CF (R&D Systems Cat#344-ER) (human, UniProt P00533 25-645); experiment: MSD multispot ECL, antigen spotted, Fab 148.9 nM; blank spot 218
T11 construct: Bought reagent; also called epidermal growth factor receptor

[15] = target: T6, rHuman ErbB2/Fc Chimera, CF (R&D …); experiment: as above
[16] = target: T7, rHuman HGF R/c-MET/Fc Chimera, CF (R&D …); experiment: as above
[17] = target: T8, rHuman CD44/Fc Chimera, CF (R&D Systems …); experiment: as above
[18] = target: T12, rHuman IGF-1 sR, (IGF-1 sR), CF (R&D Systems Cat#391-GR) (human, UniProt P08069 31-932); experiment: as above
T12 construct: Bought soluble receptor; also called insulin-like growth factor-1 soluble receptor

[19] = target: T9, rHuman Erythropoietin R/Fc Chimera, CF …; experiment: as above
[20] = target: T13, Recombinant Human DLL4 (R&D Systems Cat#1506-D4/CF) (human, UniProt Q9NR61 27-524); experiment: as above
T13 construct: Bought recombinant protein; also called rHuman DLL4; delta-like protein 4

[21] = target: T10, rHuman Notch-1/Fc Chimera, CF (R&D …); experiment: as above

T7 sequence (P08581 25-932, change not shown): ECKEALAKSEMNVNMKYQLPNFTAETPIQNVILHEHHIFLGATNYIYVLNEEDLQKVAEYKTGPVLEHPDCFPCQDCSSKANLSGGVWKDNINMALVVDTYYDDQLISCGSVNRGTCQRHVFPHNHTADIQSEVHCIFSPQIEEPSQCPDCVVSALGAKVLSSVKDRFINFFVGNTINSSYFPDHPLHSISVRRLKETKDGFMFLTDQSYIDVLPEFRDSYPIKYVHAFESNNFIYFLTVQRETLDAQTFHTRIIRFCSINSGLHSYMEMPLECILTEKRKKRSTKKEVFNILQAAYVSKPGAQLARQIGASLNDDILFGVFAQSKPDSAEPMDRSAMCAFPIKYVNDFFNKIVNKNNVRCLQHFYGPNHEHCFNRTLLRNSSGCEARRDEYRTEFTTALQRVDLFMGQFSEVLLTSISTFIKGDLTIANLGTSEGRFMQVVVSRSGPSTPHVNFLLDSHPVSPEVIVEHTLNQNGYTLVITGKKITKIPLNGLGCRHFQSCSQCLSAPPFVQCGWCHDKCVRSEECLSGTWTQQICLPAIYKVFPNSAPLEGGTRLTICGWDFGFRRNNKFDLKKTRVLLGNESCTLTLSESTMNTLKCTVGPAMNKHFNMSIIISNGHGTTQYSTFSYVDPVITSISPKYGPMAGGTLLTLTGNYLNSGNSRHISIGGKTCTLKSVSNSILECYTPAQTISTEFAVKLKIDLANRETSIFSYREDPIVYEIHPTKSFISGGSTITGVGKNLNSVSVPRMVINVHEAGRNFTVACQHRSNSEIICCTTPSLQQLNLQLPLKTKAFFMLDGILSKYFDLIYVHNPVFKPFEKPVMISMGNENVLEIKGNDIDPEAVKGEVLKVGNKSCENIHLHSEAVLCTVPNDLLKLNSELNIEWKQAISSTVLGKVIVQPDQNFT

- ECL signal [1]: 450
- ECL signal [2]: 442
- ECL signal [3]: 472
- ECL signal [4]: 596
- ECL signal [5]: 541
- ECL signal [6]: 621
- ECL signal [7]: 545
- ECL signal [8]: 1530
B1: Fab VH6-1_IGHD3-3*01_IGHJ4*01 & V4-3_IGLJ4*01 (Fab, V domains shown)
VH: QVQLQQSGPGLVKPSQTLSLTCAISGDSVSSNSAAWNWIRQSPSRGLEWLGRTYYRSKWYNDYAVSVKSRITINPDTSKNQFSLQLNSVTPEDTAVYYCAREYYDFWSGYYTDYFDYWGQGTLVTVSS
VL: QPVLTQPTSLSASPGASARLTCTLRSGINLGSYRIFWYQQKPESPPRYLLSYYSDSSKHQGSGVPSRFSGSKDASSNAGILVISGLQSEDEADYYCMIWHSSASFVFGGGTQLIIL
notes: Tested as a purified germline Fab made in E. coli; The VH was cloned into plasmid A (CH1 constant region, His6 and Flag tags) and the lambda VL into plasmid E (lambda CL)

- ECL signal [9]: 306 ECL signal
- ECL signal [10]: 286 ECL signal
- ECL signal [11]: 323 ECL signal
- ECL signal [12]: 373 ECL signal
- ECL signal [13]: 378 ECL signal
- ECL signal [14]: 290 ECL signal
- ECL signal [15]: 247 ECL signal
- ECL signal [16]: 205 ECL signal
- ECL signal [17]: 348 ECL signal
- ECL signal [18]: 322 ECL signal
- ECL signal [19]: 373 ECL signal
- ECL signal [20]: 16300 ECL signal
- ECL signal [21]: 375 ECL signal
B2: Fab VH1-46_IGHD6-6*01_IGHJ1*01 & L6_IGKJ1*01 (Fab, V domains shown)
VH: QVQLVQSGAEVKKPGASVKVSCKASGYTFTSYYMHWVRQAPGQGLEWMGIINPSGGSTSYAQKFQGRVTMTRDTSTSTVYMELSSLRSEDTAVYYCAREEYSSSSAEYFQHWGQGTLVTVSS
VL: not shown
notes: Only variable domains are tied to the molecule; Tested as a Fab made in E. coli: heavy chain from Plasmid A (CH1 constant region, His6 and Flag tags), kappa light chain from Plasmid C (kappa CL); also called parent Hit Fab against DLL4; VH1-46_IGHD6-6*01_IGHJ1*01 & L6_IGKJ1*01 (parental)
